Results taken from patent US7888090B2, “Mutants of O6-alkylguanine-DNA alkyltransferase” (Ecole Polytechnique Federale de Lausanne, priority 2004, dated 2011).

Legend:
[1] = Reaction of two AGT variants in one sample with CPTG and BG-Bt; type: biochemical; settings: CPTG and BG-Bt both at 5 μM, 30 minutes
Protocol: FIG. 2: Western blot of the reaction of wild type hAGT (GST-hAGT fusion protein) and AGTM with the two substrates N^9-cyclopentyl-O^6-bromophenyl-guanine (CPTG) and biotinylated O^6-benzylguanine (BG-Bt, substance 3a of Juillerat et al. 2003) as described in Example 7. BG-Bt is present in all samples at 5 μM. Detection with neutravidin-peroxidase conjugate and luminescent peroxidase substrate detecting any AGT reacted with BG-Bt. Even under simultaneous incubation with identical concentrations of CPTG and BG-Bt only about 5% of GST-hAGT reacts with substrate BG-Bt.
Within the experiment two tags with different size for the two AGT proteins are used: The His-tagged AGTM (˜20 kDa) and GST-hAGT (cloned and prepared as described in Example 1, but starting with the wild type hAGT gene, ˜48 kDa) are diluted to 0.2 μM and 1.2 μM final concentration, respectively, in reaction buffer containing 50 mM HEPES, 1 mM DTT, 200 mg/mL BSA (pH 7.3). The sample is incubated with a mixture of substrates N^9-cyclopentyl-O^6-bromophenyl-guanine (CPTG; 0, 5 and 10 μM final concentrations) and biotinylated O^6-benzylguanine (BG-Bt, 5 μM final concentration) for 30 minutes. The reaction is quenched by addition of SDS-Laemmli buffer and subjected to Western blotting analysis (Example 1). As the two AGT variants have different masses, the two proteins can be separated on an acrylamide gel and analyzed independently. […] At the same concentration (both substrates at 5 μM final concentration), 95% of GST-hAGT reacts with CPTG, versus only 5% of His-tagged AGTM.

[2] = system: salmon sperm DNA; assay: DNA binding as inhibition by DNA of the reaction with BG-Cy3; settings: salmon sperm DNA 25 µg/ml
Protocol: The interaction with DNA is e.g. quantified by assessing the amount of copurified DNA from E. coli extracts under conditions of low salt and absence of DNase. This is compared between parallel purifications of fusion proteins (e.g. fusions to GST) of wild type (human) and mutant AGT by spectroscopic methods (ratio of absorbance at 260 and 280 nm). Alternatively the interaction of AGT with DNA is measured as the inhibition of AGT reactivity with BG-Cy3 (O^6-(4-aminomethyl-benzyl)-guanine coupled to Cy3) as substrate in the presence of DNA. This approach takes advantage of a marked increase of fluorescence of the Cy3 fluorophore upon reaction of BG-Cy3 with AGT. The reaction kinetics of AGT with a Cy3-labeled benzylguanine derivative is followed by fluorescence intensity measurements over several hours at various concentrations of salmon sperm DNA.
DNA binding: DNA binding is measured as inhibition by DNA of the reaction of AGT mutants with BG derivatives. The reaction rate of AGT mutants in a reaction mixture containing salmon sperm DNA (25 µg/ml) instead of oligonucleotide is measured with the BG-Cy3 assay. The reaction rate is determined by fitting the obtained data to a monoexponential increase to maximum.

[3] = system: CHO cells; assay: Selective labelling in cells after CPTG pre-incubation; type: cell-based; settings: 5 µM CPTG 10 min, then 5 µM fluorescent substance 4 20 min
Text: In a further experiment, the mutant AGTM as described in Example 6 is amplified with the primers SEQ ID NO:34 and SEQ ID NO:36 and cloned between the NheI and BgIII sites of the vector pEGFP-Nuc. The […]-galactosidase gene is amplified with the primers SEQ ID NO:37 and SEQ ID NO:38 and subcloned into this vector via BgIII/BamHI to result in a vector with an AGTM-[…]-Gal fusion gene. The hAGT gene is amplified by the principle described under Example 1 with the primers SEQ ID NO:39, SEQ ID NO:40, SEQ ID NO:34, and SEQ ID NO:35 and cloned via NheI/BgIII into pEGFP-Nuc to result in an AGT-NLS3 fusion gene coding for the mutation Gly160Trp. After transient expression of both AGT mutants in parallel, the cells are incubated with 5 µM CPTG for 10 min and subsequently with 5 µM of substance 4 of Juillerat et al., Chem Biol 10:313-317, 2003, for 20 min. The cells are washed and imaged as described under Example 1.

[4] = system: oligonucleotide SEQ ID NO:2 (modified in position 14); assay: Reactivity against DNA-based substrates (BG-Cy3 assay with BG-modified oligonucleotide); type: biochemical
Protocol: The ability of wild type AGT or mutant AGT to react with alkylated DNA substrates is measured as the reaction of its inactivation by a synthetic oligonucleotide containing O^6-benzylguanine (SEQ ID NO:2, modified in position 14). Subsequently, the reactions are quenched by incubation with biotinylated O^6-alkylguanine. Samples are subjected to Western blotting and detection with streptavidin derivates to obtain kinetic constants for these substrates. Alternatively, the ability of wild type or mutant AGT to react with alkylated DNA substrates is measured via its labeling efficiency in competition with a fluorescent substrate of AGT. The reaction kinetics of AGT with BG-Cy3 (O^6-benzylguanine coupled to Cy3) is followed by fluorescence intensity measurements at various concentrations of a competing synthetic oligonucleotide containing O^6-benzylguanine (SEQ ID NO:2, modified in position 14).
Reactivity against DNA-based substrates measured with a BG-Cy3 assay: BG-Cy3 is prepared by reacting the previously described O^6-(4-aminomethyl-benzyl)guanine (Keppler et al., NatureBiotechnol. 21:86-89, 2003) with the commercially available N-hydroxysuccinimide ester of Cy3, (Cy3-NHS, Amersham). The coupling reaction is performed at ambient temperature in N,N-dimethylformamide in the presence of 1 eq. of triethylamine. The BG-Cy3 conjugate is purified by reversed-phase HPLC on a C18-column by using linear gradients from 0.1% trifluoroacetic acid to acetonitrile. After solvent evaporation BG-Cy3 is dissolved in dimethyl sulfoxide and stored at −20° C. For measuring the reactivity with DNA-based substrates, a reaction mixture containing different concentrations (0 to 5 µM) of oligonucleotide SEQ ID NO:2 (modified in position 14), GST-AGT fusion protein at 0.2 µM and BG-Cy3 at […] in reaction buffer (50 mM HEPES, pH 7.2, 1 mM DTT, 200 mg/ml BSA) is incubated in microtiterplates. Fluorescence of the Cy3 derivative (excitation 519 nm, emission at 572 nm) is measured on a Spectramax Gemini plate reader (Molecular Devices).

B1: AGTM: AGT mutant Cys62Ala, Gln115Ser, Gln116His, Lys125Ala, Ala127Thr, Arg128Ala, Gly131Lys, Gly132Thr, Met134Leu, Arg135Ser, Cys150Asn, Ser151Ile, Ser152Asn, Asn157Gly, Ser159Glu, truncated after … (protein, UniProt P16455 1-207, looked up, variant C62A Q115S Q116H K125A A127T R128A G131K G132T M134L R135S C150N S151I S152N N157G S159E del183-207)
Methylated-DNA--protein-cystei …: MDKDCEMKRTTLDSPLGKLELSGCEQGLHEIKLLGKGTSAADAVEVPAPAAVLGGPEPLMQATAWLNAYFHQPEAIEEFPVPALHHPVFQQESFTRQVLWKLLKVVKFGEVISYSHLAALAGNPAATAAVKTALSGNPVPILIPCHRVVNINGAVGGYEGGLAVKEWLLAHEGHRLGKPGLG
modifications: His tag
fraction of protein reacting with CPTG [1]: 5% | reduction of reaction rate to BG-Cy3 in presence of DNA [2]: unchanged | reaction with CPTG inside cells [3]: does not react with CPTG | reduced reactivity with DNA substrates (factor) [4]: ≥ 100 | reaction with BG-Cy3 in presence of BG-modified oligonucleotide ([4]; up to 5 µM BG-modified oligonucleotide): no reduction
